Drawing on paper PMC12065894, this text covers IC50 of inhibition of dasTMPRSS2 (1.5 nM) peptidase activity on Boc-QAR-AMC (100 µM), 10 min pre-incubation, IC50 of inhibition of dasTMPRSS2 (1.5 nM) peptidase activity on Boc-QAR-AMC (100 µM) and IC50 of inhibition of dasTMPRSS11D (15 nM) peptidase activity on Boc-QAR-AMC (100 µM) for five substances.

For assay [1], the target named is dasTMPRSS2 (active TMPRSS2 ectodomain with DDDDK zymogen activation motif) (human) (UniProt O15393).
The target is the same in assay [2]. This is another data set of the same source.
Assay [3] addresses dasTMPRSS11D (active, autocleaved TMPRSS11D with DDDDK zymogen activation motif) (human) (UniProt O60235).

dasTMPRSS11D (active, autocleaved TMPRSS11D with DDDDK zymogen activation motif) (human), sequence (O60235 other isoform, or with tags, fused parts or gaps L182D | S183D | E184D | Q185D | R186K, chain 1 of 2): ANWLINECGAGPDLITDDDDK
dasTMPRSS11D (active, autocleaved TMPRSS11D with DDDDK zymogen activation motif) (human), sequence (O60235 187-418, chain 2 of 2): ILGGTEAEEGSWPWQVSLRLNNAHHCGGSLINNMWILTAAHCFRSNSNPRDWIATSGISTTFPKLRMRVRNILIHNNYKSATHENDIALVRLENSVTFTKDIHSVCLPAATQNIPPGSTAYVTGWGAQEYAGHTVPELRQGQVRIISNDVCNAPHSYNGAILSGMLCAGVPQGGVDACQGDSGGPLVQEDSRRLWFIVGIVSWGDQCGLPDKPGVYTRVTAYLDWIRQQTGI
dasTMPRSS2 (active TMPRSS2 ectodomain with DDDDK zymogen activation motif) (human), sequence (O15393 other isoform, or with tags, fused parts or gaps, chain 1 of 2): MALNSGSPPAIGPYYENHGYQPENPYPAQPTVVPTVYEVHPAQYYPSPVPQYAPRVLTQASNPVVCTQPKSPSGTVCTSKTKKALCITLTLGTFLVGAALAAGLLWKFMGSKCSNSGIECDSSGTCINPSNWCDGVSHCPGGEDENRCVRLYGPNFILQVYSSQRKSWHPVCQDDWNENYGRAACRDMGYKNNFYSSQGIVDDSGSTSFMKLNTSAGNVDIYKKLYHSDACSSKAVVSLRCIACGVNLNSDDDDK
dasTMPRSS2 (active TMPRSS2 ectodomain with DDDDK zymogen activation motif) (human), sequence (O15393 256-492, chain 2 of 2): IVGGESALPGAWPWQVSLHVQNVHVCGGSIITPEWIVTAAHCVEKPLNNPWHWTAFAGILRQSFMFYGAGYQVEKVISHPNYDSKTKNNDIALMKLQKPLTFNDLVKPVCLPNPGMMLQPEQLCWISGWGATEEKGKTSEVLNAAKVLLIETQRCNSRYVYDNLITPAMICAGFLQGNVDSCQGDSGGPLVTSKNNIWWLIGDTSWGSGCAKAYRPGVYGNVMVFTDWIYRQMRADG

Regarding “Peptidomimetic 2, Ac-Gln-Ser-Arg-kbt (peptide)”, the IC50 of inhibition of dasTMPRSS2 (1.5 nM) peptidase activity on Boc-QAR-AMC (100 µM), 10 min pre-incubation in assay [1] came out at 2.1 nM.

In the case of “Peptidomimetic 3, Ac-Glu-Glu-Arg-kbt (peptide)”, in assay [2], the IC50 of inhibition of dasTMPRSS2 (1.5 nM) peptidase activity on Boc-QAR-AMC (100 µM) turned out to be 3.2 nM. In assay [3], the IC50 of inhibition of dasTMPRSS11D (15 nM) peptidase activity on Boc-QAR-AMC (100 µM) came out at 7.1 nM. The substance “Peptidomimetic 5, Ac-Glu-Orn-Arg-kbt (peptide)” showed an IC50 of inhibition of dasTMPRSS2 (1.5 nM) peptidase activity on Boc-QAR-AMC (100 µM) in assay [2] of 6.2 nM. This substance also yielded an IC50 of inhibition of dasTMPRSS11D (15 nM) peptidase activity on Boc-QAR-AMC (100 µM) in assay [3] of 2100 nM. In assay [2], “Peptidomimetic 4, Ac-Glu-D-Glu-Arg-kbt (peptide)” had an IC50 of inhibition of dasTMPRSS2 (1.5 nM) peptidase activity on Boc-QAR-AMC (100 µM) of 42 nM. The substance further gave an IC50 of inhibition of dasTMPRSS11D (15 nM) peptidase activity on Boc-QAR-AMC (100 µM) in assay [3] of 111 nM. In turn, “Peptidomimetic 1, Ac-Glu-Gln-Arg-kbt (peptide)” returned an IC50 of inhibition of dasTMPRSS2 (1.5 nM) peptidase activity on Boc-QAR-AMC (100 µM), 10 min pre-incubation in assay [1] of 2.2 nM.
